Measurements published in article PMC11402128, “The stability of FKBP9 maintained by BiP is crucial for glioma progression” (Genes & Diseases, 2023).

Molecular target: T1, human recombinant protein BiP (TP305859, Origene) (human, UniProt P11021 19-654)
T1 construct: also called purified BiP; source: bought: Origene (TP305859)
Test: SPR; BScreen LB 991 label-free microarray system; proteins printed on the chip and photo-cross-linked; analyte proteins at 200, 400, 800, 1600 and 3200 nM in 10 mM HEPES pH 7.0, 3 mM EDTA, 150 mM NaCl, 0.005% P20; 5 uL/min, 10 min association, 6 min dissociation; constants by slope fitting
Conditions: both partners purified

T1 sequence (P11021 19-654): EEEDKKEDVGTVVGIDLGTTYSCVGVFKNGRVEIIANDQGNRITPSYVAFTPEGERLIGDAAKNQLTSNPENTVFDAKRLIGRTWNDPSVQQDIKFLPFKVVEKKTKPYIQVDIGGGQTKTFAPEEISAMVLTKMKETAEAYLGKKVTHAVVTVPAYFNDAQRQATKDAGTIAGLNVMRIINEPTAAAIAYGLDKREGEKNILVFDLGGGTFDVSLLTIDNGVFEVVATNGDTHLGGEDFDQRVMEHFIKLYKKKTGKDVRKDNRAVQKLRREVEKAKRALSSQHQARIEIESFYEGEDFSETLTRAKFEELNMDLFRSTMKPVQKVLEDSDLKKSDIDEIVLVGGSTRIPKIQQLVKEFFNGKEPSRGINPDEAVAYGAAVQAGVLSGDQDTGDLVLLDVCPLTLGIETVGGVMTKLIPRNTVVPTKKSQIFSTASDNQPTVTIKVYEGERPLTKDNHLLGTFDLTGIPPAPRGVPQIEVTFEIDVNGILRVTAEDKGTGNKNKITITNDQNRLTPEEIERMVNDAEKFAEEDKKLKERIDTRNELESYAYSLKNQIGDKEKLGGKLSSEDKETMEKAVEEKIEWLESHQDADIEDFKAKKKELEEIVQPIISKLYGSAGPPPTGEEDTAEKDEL

B1: human recombinant protein FKBP9 (TP322307, Origene) (natural protein, UniProt O95302 25-570, looked up)
chain: APVAGLGSDAELQIERRFVPDECPRTVRSGDFVRYHYVGTFPDGQKFDSSYDRDSTFNVFVGKGQLITGMDQALVGMCVNERRFVKIPPKLAYGNEGVSGVIPPNSVLHFDVLLMDIWNSEDQVQIHTYFKPPSCPRTIQVSDFVRYHYNGTFLDGTLFDSSHNRMKTYDTYVGIGWLIPGMDKGLLGMCVGEKRIITIPPFLAYGEDGDGKDIPGQASLVFDVALLDLHNPKDSISIENKVVPENCERISQSGDFLRYHYNGTLLDGTLFDSSYSRNRTFDTYIGQGYVIPGMDEGLLGVCIGEKRRIVVPPHLGYGEEGRGNIPGSAVLVFDIHVIDFHNPSDSISITSHYKPPDCSVLSKKGDYLKYHYNASLLDGTLLDSTWNLGKTYNIVLGSGQVVLGMDMGLREMCVGEKRTVIIPPHLGYGEAGVDGEVPGSAVLVFDIELLELVAGLPEGYMFIWNGEVSPNLFEEIDKDGNGEVLLEEFSEYIHAQVASGKGKLAPGFDAELIVKNMFTNQDRNGDGKVTAEEFKLKDQEAKHDEL
notes: also called purified FKBP9; source: bought: Origene (TP322307)
- Kd: 0.271 µM
